The text below walks through data of patent US11306156.

The target in assay [1] is tissue factor (TF) antigen (UniProt P13726). Description: SPR (ProteOn XPR36), Fab captured on anti-penta His surface, TF injected, 1:1 fit; reference wild-type D3H44 Fab.
Assay [2] shares this target. Nature of the assay: SPR (ProteOn XPR36), Fab captured on anti-penta His surface, TF injected, 1:1 fit.
The target is the same in assay [3]. Nature of the assay: vs wild-type D3H44 Fab (estimated wt KD […]); SPR; estimated (*) from Fab differing only in L chain tag.
The target is the same in assay [4]. Description: SPR, Fab captured on anti-penta-His, TF as analyte, 1:1 fit; estimated (*) from Fab differing only in L chain tag.
Assay [5] has the same target. Nature of the assay: SPR, Fab captured on anti-penta-His, TF as analyte, 1:1 fit; estimated value from Fab differing only in L chain tag.
For assay [6] the target is unchanged. Description: SPR (ProteOn XPR36), Fab captured on anti-penta His surface, TF injected, 1:1 fit; batch C ('+'); reference wild-type D3H44 Fab.
Assay [7] shares this target. Nature of the assay: SPR (ProteOn XPR36), Fab captured on anti-penta His surface, TF injected, 1:1 fit; batch C ('+').
For assay [8] the target is unchanged. Description: SPR, Fab captured on anti-penta-His, TF as analyte, 1:1 fit. (SPR reads the build-up and loss of mass on a sensor chip optically.)
The target is the same in assay [9]. Description: SPR, Fab captured on anti-penta-His, TF as analyte; against wild-type D3H44 Fab.
For assay [10] the target is unchanged. Nature of the assay: SPR, ProteOn XPR36; His-tagged Fab captured on anti-penta-His, TF injected; 1:1 fit; batch C (+).
Assay [11] shares this target. Nature of the assay: SPR as for KD; reference: wild-type D3H44 Fab; batch C (+).
For assay [12] the target is unchanged. Nature of the assay: SPR, Fab captured on anti-penta His surface, TF as analyte, 1:1 fit.
Assay [13] deals with D3H44 light chain Q124E_Q160E_T180E_C214S. Nature of the assay: LCCA, SPR tag readout, L1:L2 DNA 1:9 normalized to 1:1; competitor m20.
The target is the same in assay [14]. Description: LCCA, SPR tag readout, L1:L2 DNA 1:3 normalized to 1:1; competitor m20.
The target of assay [15] is D3H44 light chain P44F_S131K. Description: LCCA, SPR tag readout, L1:L2 DNA 1:9 normalized to 1:1; competitor m22.
Assay [16] has as its target D3H44 light chain P44F_S131K. Description: LCCA, SPR tag readout, L1:L2 DNA 1:3 normalized to 1:1; competitor m22.
For assay [17], the target named is D3H44 light chain Q124E_T180E (Kabat), N-terminal HA or FLAG tag. Nature of the assay: LCCA co-expression, competing light chain m36, L1:L2 DNA 1:3 normalized to 1:1, SPR tag read-out.
Assay [18] concerns the target D3H44 light chain S131K (Kabat), N-terminal HA or FLAG tag. Description: LCCA co-expression, competing light chain m37, L1:L2 DNA 1:3 normalized to 1:1, SPR tag read-out.
In assay [19] the target is D3H44 light chain Q38R_S131K. Nature of the assay: LCCA, SPR tag readout, L1:L2 DNA 1:3 normalized to 1:1; competitor m19.
The target of assay [20] is D3H44 light chain Q38E_Q124E_Q160E_T180E. Description: LCCA, SPR tag readout, L1:L2 DNA 1:3 normalized to 1:1; competitor m21.
For assay [21] the target is unchanged. Description: LCCA, SPR tag readout, L1:L2 DNA 1:9 normalized to 1:1; competitor m21.
The target in assay [22] is D3H44 light chain Q38R_S131K. Description: LCCA, SPR tag readout, L1:L2 DNA 1:9 normalized to 1:1; competitor m19.

In [1], “D3H44 Fab heterodimer, H1 L124R_S186R / L1 V133G_S176D_T178E_T180E (H1L1 Fab of LCCA Sets # 9541, 9544, 9542)” yielded a Change in median values of KD of h1l1 Fab heterodimer compared to wild type (-(log(KD design)-log(KD wt))) of -0.15. Also, in assay [2], the Kd (as a rule, the equilibrium constant for the complex coming apart) turned out to be 0.22 nM.
With “H1L1 Fab heterodimer of LCCA sets 9663 and 9666 (D3H44 Fab, H1 L143E_K145T_Q179E, L1 Q124R_T178R; L chain tag differs from the measured Fab)”, the change in median KD compared to wild type, -(log(KD design)-log(KD wt)) in assay [3] was -0.23. For the same substance, in assay [4], the Kd is 0.27 nM.
For “D3H44 Fab heterodimer, H L124E_L143E_K145T / L Q124K_V133G_S176R_T178K”, in [5], the Change in KD with respect to wild type (-(log(KD design) - log(KD wt))) was -0.12 and the Kd is 0.21 nM.
In turn, “D3H44 Fab heterodimer, H1 S186K / L1 Q124E_T178E_T180E (H1L1 Fab of LCCA Set # 9852)” gave a Change in median values of KD of h1l1 Fab heterodimer compared to wild type (-(log(KD design)-log(KD wt))) in assay [6] of 0.02. The same substance displayed a Kd in assay [7] of 0.15 nM.
In the case of “D3H44 Fab heterodimer, H1 L45P_L143E_K145T_Q179E / L1 P44F_Q124R_Q160K_T178R (H1L1 Fab of LCCA Set # 9754)”, the Kd in [8] worked out at 0.3 nM. For the same substance, the change in median KD compared to wild type, -(log(KD design)-log(KD wt)) in assay [9] is -0.28.
In assay [6], “D3H44 Fab heterodimer, H1 Q179K / L1 Q124E_S131T_T178F_T180E (H1L1 Fab of LCCA Sets # 9778, 9777)” gave a Change in median values of KD of h1l1 Fab heterodimer compared to wild type (-(log(KD design)-log(KD wt))) of 0.13. The Kd in [7] stood at 0.12 nM.
With “D3H44 Fab heterodimer, H1 Q179R / L1 S131E (H1L1 Fab of LCCA Set # 9984)”, in assay [6], the Change in median values of KD of h1l1 Fab heterodimer compared to wild type (-(log(KD design)-log(KD wt))) amounted to 0. For the same substance, the Kd in [7] came to 0.16 nM.
In the case of “D3H44 Fab heterodimer, H1L1 of LCCA Set # 9611 (H1 L143E_K145T_H172R; L1 Q124R_Q160K_T178R)”, the Kd in [10] and in assay [12] was 0.12 nM each time. Also, the change in median KD compared to wild type, -(log(KD design)-log(KD wt)) in assay [11] turned out to be 0.12. The substance further returned a Change in KD with respect to wild type (-(log(KD design) - log(KD wt))) in assay [12] of 0.12.
Regarding “H1L1 Fab heterodimer of LCCA set 9623 (D3H44 Fab, H1 L143E_K145T_Q179D, L1 Q124R_Q160K_T178R; L chain tag differs from the measured Fab)”, the change in median KD compared to wild type, -(log(KD design)-log(KD wt)) in [3] is 0.39. Also, the Kd in assay [4] was 0.06 nM.
Take “D3H44 Fab heterodimer, H1 L124R_S186K / L1 V133G_S176D_T178D_T180E (H1L1 Fab of LCCA Set # 9471 and 9473)”: in [8], the Kd amounted to 0.18 nM. The same substance showed a change in median KD compared to wild type, -(log(KD design)-log(KD wt)) in assay [9] of -0.07.
As to “D3H44 Fab heavy chain L45P_K145T_H172R_Q179E”, the H1L1:H1L2 normalized median ratio in [13] is 8%; in assay [14], 6%; in assay [15], 92%; in assay [16], 94%. The H2L2:H2L1 normalized median ratio in [13] was 8%; in assay [14], 6%; in assay [15] it was 92%; in assay [16], 94%. Moreover, the H1L1:H1L2 normalized median scalar value ln(r1/f1) in assay [15] stood at 2.42; in [16], 2.78.
With “D3H44 Fab heavy chain S186R (Kabat), C-terminal ABD2-His6 tag”, the H2L2:H2L1 normalized median ratio was 96 of 100 in assay [17] and 4 of 100 in [18].
“D3H44 Fab heterodimer, H1 Q39R_H172R_S186R / L1 Q38E_Q124E_Q160E_T180E (H1L1 Fab of LCCA Set # 9824)” displayed a Change in median values of KD of h1l1 Fab heterodimer compared to wild type (-(log(KD design)-log(KD wt))) in assay [6] of 0.03. Moreover, in assay [7], the Kd turned out to be 0.15 nM.
With D3H44 Fab heavy chain Q39E_K145T_Q179E, the H1L1:H1L2 normalized median ratio in assay [19] is 93%; in assay [20], 7%; in assay [21], 10%; in assay [22], 90%. Moreover, the H1L1:H1L2 normalized median scalar value ln(r1/f1) in assay [22] turned out to be 2.16.
As to “H1L1 Fab heterodimer of LCCA sets 9140, 9142, 9144 and 9146 (D3H44 Fab, H1 L124E_K145T_Q179E, L1 S131K_V133G_S176R; L chain tag differs from the measured Fab)”, the change in median KD compared to wild type, -(log(KD design)-log(KD wt)) in assay [3] was 0. Further, the Kd in [4] is 0.16 nM.
In the case of “D3H44 Fab heterodimer, H1 L124R_S186K / L1 Q124E_V133G_S176D_T178D_T180E (H1L1 Fab of LCCA Sets # 9451, 9459, 9460, 9461, 9449)”, the Change in median values of KD of h1l1 Fab heterodimer compared to wild type (-(log(KD design)-log(KD wt))) in assay [1] was -0.23. The Kd in assay [2] was 0.26 nM.
In turn, “D3H44 Fab heterodimer, H1 L124A_L143F_Q179K / L1 Q124E_V133W_S176T_T178L_T180E (H1L1 Fab of LCCA Set # 9096, 9095 and 9094)” showed an equilibrium dissociation constant (Kd) in assay [8] of 0.17 nM. For the same substance, the change in median KD compared to wild type, -(log(KD design)-log(KD wt)) in [9] was -0.04.
Take “D3H44 Fab heterodimer, H L124E_L143E_K145T / L Q124K_V133G_S176R_T178R”: in assay [5], the Change in KD with respect to wild type (-(log(KD design) - log(KD wt))) is -0.07 and the Kd is 0.18 nM.
Regarding “H1L1 Fab heterodimer of LCCA set 9651 (D3H44 Fab, H1 L143E_K145T_Q179E, L1 Q124R_Q160K_T178R; L chain tag differs from the measured Fab)”, in [3], the change in median KD compared to wild type, -(log(KD design)-log(KD wt)) was 0.02. In addition, the Kd in assay [4] was 0.15 nM.
Take “D3H44 Fab heavy chain Q39E_K145T_H172R_Q179E”: the H1L1:H1L2 normalized median ratio in assay [19] was determined as 93%; in assay [20] it was 7%; in assay [21], 11%; in assay [22] it was 89%. For the same substance, the values for the H1L1:H1L2 normalized median scalar value ln(r1/f1) in assay [19] and in [22] were 2.53 and 2.09, respectively.
In the case of D3H44 Fab heavy chain Q39R_H172R_S186R, the H2L2:H2L1 normalized median ratio came to 6% in assay [19], 94% in [20], 93% in [21] and 7% in [22].
The substance “D3H44 Fab heterodimer, H1L1 of LCCA Sets # 9807 and 9808 (H1 Q179R; L1 Q124E_S176L_T180E)” returned a Kd in assay [10] of 0.17 nM. The change in median KD compared to wild type, -(log(KD design)-log(KD wt)) in assay [11] is -0.02.
The like results for “D3H44 Fab heterodimer, H1L1 of LCCA Sets # 9881 and 9882 (H1 S186R; L1 Q124E_S131T_T178F_T180E)” were, in that order, 0.11 nM and 0.15.
Regarding “D3H44 Fab heterodimer, H1 L124R_Q179K / L1 Q124E_V133G_S176D_T178E_T180E (H1L1 Fab of LCCA Set # 9392, 9394, 9395, 9376, 9380 and 9384)”, the dissociation constant (Kd) in [8] turned out to be 0.22 nM. In addition, the change in median KD compared to wild type, -(log(KD design)-log(KD wt)) in [9] was -0.15.
For D3H44 Fab heavy chain Q39R_S186R, the H2L2:H2L1 normalized median ratio is 4% in assay [19], 96% in [20], 96% in [21] and 4% in [22].
